Test results as given in patent publication US20240116985A1 (published 2024).
Starred links: 1 amine or outer side, 2 acyl side, 3 side chain; linkers in the order of their positions; H or OH if unused. Positions of bridges follow the written chain, without caps; N, C: chain ends. Non-standard residues stand in square brackets, D forms with d. Primed or numbered codes have the meaning given here. B5(4) = 2,2-bis(4-pentenyl)glycine = 2-amino-2-(pent-4-en-1-yl)hept-6-enoic acid (stitching residue), C=CCCCC(CCCC=C)(N[*:1])C(=O)[*:2]; TfeGA = (S)-2-amino-3-((carboxymethyl)(2,2,2-trifluoroethyl)amino)propanoic acid, O=C([C@H](CN(CC(=O)[*:3])CC(F)(F)F)N[*:1])[*:2]; B5(3) = 2,2-bis(4-pentenyl)glycine (stitching residue), C=CCCCC(CCCC=C)(N[*:1])C(=O)[*:2]; Phe(2-Cl) = N[C@@H](Cc1ccccc1Cl)C(=O)O; Bta = N[C@@H](Cc1csc2ccccc12)C(=O)O; αAllylPro = C=CC[C@@]1(C(=O)O)CCCN1; tBuAla = CC(C)(C)C[C@H](N)C(=O)O; S8 = C=CCCCCCC[C@](C)(N)C(=O)O; hSer = N[C@@H](CCO)C(=O)O

T1: B-cat-Halo (UniProt P35222 1-781, HaloTag NanoBRET 618 Ligand bound in the assay)
T1 construct: Transfected into HEK293 cells for the NanoBRET assay; also called beta-catenin HaloTag NanoBRET construct; not shown: HaloTag
T1 sequence (looked up): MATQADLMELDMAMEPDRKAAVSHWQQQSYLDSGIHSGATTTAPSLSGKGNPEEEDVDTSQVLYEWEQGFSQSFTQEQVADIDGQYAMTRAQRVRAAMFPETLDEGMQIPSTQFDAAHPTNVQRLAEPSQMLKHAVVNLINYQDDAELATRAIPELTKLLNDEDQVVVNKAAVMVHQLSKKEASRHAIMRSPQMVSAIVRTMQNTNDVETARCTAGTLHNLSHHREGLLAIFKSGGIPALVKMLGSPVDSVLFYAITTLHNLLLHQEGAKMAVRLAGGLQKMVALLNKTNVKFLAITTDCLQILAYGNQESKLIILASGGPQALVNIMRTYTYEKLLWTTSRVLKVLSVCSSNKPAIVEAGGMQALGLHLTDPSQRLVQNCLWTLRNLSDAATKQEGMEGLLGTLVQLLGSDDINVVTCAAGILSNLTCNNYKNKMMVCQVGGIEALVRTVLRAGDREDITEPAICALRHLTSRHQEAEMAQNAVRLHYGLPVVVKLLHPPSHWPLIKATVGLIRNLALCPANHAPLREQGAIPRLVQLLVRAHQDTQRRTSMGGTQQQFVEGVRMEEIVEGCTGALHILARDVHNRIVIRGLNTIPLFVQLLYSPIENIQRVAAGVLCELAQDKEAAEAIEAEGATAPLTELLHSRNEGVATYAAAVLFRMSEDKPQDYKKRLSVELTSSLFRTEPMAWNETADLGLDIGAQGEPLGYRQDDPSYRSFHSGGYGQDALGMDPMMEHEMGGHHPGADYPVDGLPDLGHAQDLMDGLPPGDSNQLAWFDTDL

T2: full-length beta-Catenin (Uniprot ID P35222) (Homo sapiens (Human), UniProt P35222 1-781)
T2 construct: also called bCat; B-Catenin
T2 sequence: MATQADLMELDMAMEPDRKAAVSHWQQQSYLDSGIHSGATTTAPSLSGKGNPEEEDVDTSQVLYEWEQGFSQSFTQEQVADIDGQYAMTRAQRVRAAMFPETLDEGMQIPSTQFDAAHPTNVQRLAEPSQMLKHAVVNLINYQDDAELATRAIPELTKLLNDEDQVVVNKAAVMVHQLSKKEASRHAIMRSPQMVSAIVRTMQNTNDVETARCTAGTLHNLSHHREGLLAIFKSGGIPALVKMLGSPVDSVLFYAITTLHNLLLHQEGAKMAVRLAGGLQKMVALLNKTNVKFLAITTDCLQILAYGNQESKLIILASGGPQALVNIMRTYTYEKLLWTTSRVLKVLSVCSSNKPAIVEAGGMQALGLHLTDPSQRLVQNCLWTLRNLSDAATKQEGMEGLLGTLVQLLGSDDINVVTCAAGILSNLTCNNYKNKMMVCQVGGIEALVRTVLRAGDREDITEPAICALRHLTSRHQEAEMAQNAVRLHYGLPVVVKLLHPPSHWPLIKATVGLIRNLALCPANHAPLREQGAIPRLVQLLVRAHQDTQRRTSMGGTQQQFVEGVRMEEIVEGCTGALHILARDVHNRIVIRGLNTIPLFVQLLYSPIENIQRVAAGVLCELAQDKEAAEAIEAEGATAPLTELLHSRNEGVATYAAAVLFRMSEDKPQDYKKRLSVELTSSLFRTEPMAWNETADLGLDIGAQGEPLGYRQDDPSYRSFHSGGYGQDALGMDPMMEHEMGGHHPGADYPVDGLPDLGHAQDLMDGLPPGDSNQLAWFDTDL

T3: B-cat-Halo (UniProt P35222 1-781)
T3 sequence (looked up): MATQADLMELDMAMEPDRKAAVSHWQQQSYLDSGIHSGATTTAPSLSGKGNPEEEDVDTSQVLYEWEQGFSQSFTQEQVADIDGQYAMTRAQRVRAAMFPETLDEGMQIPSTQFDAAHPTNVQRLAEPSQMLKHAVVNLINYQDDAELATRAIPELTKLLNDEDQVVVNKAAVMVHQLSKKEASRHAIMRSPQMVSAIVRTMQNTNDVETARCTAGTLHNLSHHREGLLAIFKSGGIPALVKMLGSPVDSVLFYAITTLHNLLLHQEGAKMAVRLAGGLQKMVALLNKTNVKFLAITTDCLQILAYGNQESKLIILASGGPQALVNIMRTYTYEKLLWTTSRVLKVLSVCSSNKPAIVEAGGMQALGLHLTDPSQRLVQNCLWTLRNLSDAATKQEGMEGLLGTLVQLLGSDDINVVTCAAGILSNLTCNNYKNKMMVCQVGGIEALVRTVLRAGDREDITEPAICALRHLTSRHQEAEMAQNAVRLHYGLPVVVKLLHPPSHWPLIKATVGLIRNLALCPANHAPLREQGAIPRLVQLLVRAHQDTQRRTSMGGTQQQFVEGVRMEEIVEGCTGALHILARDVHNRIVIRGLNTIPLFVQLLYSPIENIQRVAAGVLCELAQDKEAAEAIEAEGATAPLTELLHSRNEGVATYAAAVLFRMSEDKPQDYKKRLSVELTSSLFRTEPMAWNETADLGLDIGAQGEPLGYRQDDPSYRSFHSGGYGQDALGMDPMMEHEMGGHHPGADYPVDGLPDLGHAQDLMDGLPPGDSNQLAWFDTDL

T4: beta-catenin in DLD1 TCF/LEF luciferase reporter cells (UniProt P35222 1-781)
T4 sequence (looked up): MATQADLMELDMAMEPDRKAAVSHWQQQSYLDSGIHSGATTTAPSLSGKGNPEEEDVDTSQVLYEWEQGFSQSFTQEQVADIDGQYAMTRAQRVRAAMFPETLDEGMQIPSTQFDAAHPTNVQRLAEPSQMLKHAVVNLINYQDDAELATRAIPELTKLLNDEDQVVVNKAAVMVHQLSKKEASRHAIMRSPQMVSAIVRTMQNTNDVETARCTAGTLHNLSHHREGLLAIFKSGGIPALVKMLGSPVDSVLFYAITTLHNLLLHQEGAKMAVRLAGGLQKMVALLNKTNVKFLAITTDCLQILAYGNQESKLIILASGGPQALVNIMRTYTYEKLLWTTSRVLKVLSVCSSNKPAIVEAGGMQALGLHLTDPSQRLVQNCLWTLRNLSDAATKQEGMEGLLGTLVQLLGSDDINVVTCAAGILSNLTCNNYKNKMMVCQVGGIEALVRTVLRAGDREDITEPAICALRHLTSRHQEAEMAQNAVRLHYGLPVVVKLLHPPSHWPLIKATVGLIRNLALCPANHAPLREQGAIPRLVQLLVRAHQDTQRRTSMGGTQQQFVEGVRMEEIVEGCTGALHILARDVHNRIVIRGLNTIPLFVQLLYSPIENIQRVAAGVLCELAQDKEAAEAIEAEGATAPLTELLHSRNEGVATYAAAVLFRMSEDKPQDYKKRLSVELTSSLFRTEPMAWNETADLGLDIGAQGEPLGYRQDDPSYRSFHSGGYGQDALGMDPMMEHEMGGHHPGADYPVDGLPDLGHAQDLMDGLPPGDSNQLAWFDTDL


Tests used:
[1] = biological target: T1, B-cat-Halo; experiment: NanoBRET Abs IC50 in HEK293 cells; B-cat-Halo, competitor TCF4-Luc
[2] = biological target: T2, full-length beta-Catenin (Uniprot ID …); experiment: fluorescence polarization competition; full-length beta-catenin, competitor 5FAM-TCF4(10-53) probe
Method in brief: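 Fluorescence polarization was read in duplicate after the plate sat 60 minutes at 20° C. shielded from light. Values come from fitting to a 1:1 binding model with hill slope.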

[3] = biological target: T3, B-cat-Halo; experiment: cell-based or functional assay
[4] = biological target: T4, beta-catenin in DLD1 TCF/LEF luciferase …; experiment: cell-based or functional assay

IC50 [1] [µM] | IC50 [2] [µM] | NanoBRET Abs IC50 [3] [µM] | DLD1 4% Abs IC50 [4] [µM] | Binder
7.4 | 0.043 | – | – | Ac-[αAllylPro]DL[B5(4)]DEAAFN[S8]F[Bta]S-NH2 (staple 1-4, 4-11; also: olefin E/Z not assigned, earlier-eluting staple isomer, Stapled peptide; same description as I-751, earlier eluting staple isomer composition; also called Ac-PL3-Asp-Leu-B5-Asp-Glu-Ala-Ala-Phe-Asn-S8-Phe-BztA-Ser-NH2) [I-750]
– | – | 23.9 | 1.9 | Ac-[αAllylPro]D[tBuAla][B5(3)]D[TfeGA]AAF[hSer][S8][Phe(2-Cl)][Bta][hSer]-NH2 (staple 1-4, 4-11) [I-1000]
